Experimental data from the Human Domainome abundance scans (Beltran et al. 2025).

B1: Chromodomain-helicase-DNA-binding protein 4, residues 365 to 417; numbered along this chain, Q14839 (parent)
chain: YETDHQDYCEVCQQGGEIILCDTCPRAYHMVCLDPDMEKAPEGKWSCPHCEKE
B2: Transcription elongation factor A N-terminal and central domain-containing protein, residues 30 to 77; numbered along this chain, Q8N8B7 (parent)
chain: LTELETIYVTKEHLQETDVVRAVYRVLKNCPSVALKKKAKCLLSKWKA

Variants of: B1
Experiment: abundance fitness (aPCA) (normalised: wild type 0, dead -1); higher = more abundant; growth selection in yeast, the domain comes from the species named
Details: Homo sapiens

Abundance fitness of substitutions, site by site:
D7: H -0.51 | T 0.067 | A -0.095 | Y -0.003 | I -0.458 | P -0.29 | F -0.544 | E 0.015 | G 0 | Q 0.119 | S 0.037 | C -1.06 | V -0.19 | R -0.005 | N -0.183 | K -0.075 | W -0.346 | M -0.037
Y8: F 0.471 | G -0.291 | R 0.155 | H 0.481 | C -0.222 | I -0.099 | D -0.269 | T 0.221 | E -0.109 | N -0.13 | M 0.011 | Q 0.427 | P 0.033 | A -0.052 | V -0.124 | L 0.031
Q6: G -0.384 | L -0.239 | Y -0.243 | A -0.269 | P -0.161 | C -0.212 | F -0.606 | E -0.306 | S 0.026 | H -0.359 | W -0.347 | V -0.347
Y1: A 0.534 | V 0.348 | N -0.028 | L -0.316 | D -0.863 | M 0.64 | F 0.069 | K 0.593 | C 0.19 | S 0.108 | R 0.048 | W 0.441
E2: L 0.386 | Q 0.654 | R 0.406 | S 0.425 | K 0.077 | C 0.484 | Y 0.426 | W 0.297 | G 0.102 | I 0.176 | A -0.143 | P 0.263 | T 0.349 | H 0.347 | D 0.033 | M 0.621
D4: F -0.031 | I -0.089 | S -0.127 | N -0.114 | L -0.003 | C 0.071 | G 0.008 | Y 0.004 | A -0.066 | T -0.168 | W -0.173 | M 0.299 | Q 0.114 | H 0.304 | K 0.23 | E 0.1
H5: D -0.801 | N 0.12 | W -0.23 | I 0.092 | A 0.283 | K -0.044 | F -0.059 | M 0.41 | C -0.083 | S 0.224 | R 0.193 | Q -0.111 | G 0.158 | P 0.19 | V 0.208 | T 0.349
T3: L 0.141 | K 0.205 | C 0.124 | D -0.022 | Y 0.034 | I 0.111 | F 0.059 | M 0.19 | P -0.225 | E 0.074 | W -0.182 | A -0.396 | V 0.103 | N -0.106 | H -0.461 | G 0.13 | R 0.024 | S 0.185 | Q -0.29

Variants of: B2
Experiment: as above
Details: Homo sapiens

Abundance fitness of substitutions, site by site:
V19: I -0.133 | S -0.481
K28: I -0.149 | T -0.169 | G -0.402 | E -0.679
R21: F -0.914 | M -0.333 | C -0.468 | E -0.647 | N -0.113 | I -1.03
K38: T -0.11 | L -0.024 | P -0.679 | N 0.201 | I -0.266 | C 0.099 | A 0.023
K47: W 0.025 | P -0.334 | I -0.47 | G -0.605 | L -0.508 | M -0.252
T6: H -0.147 | C -0.262 | N -0.514 | I -0.891
K37: H -0.609 | E -0.248 | C -0.895 | Q -0.553 | P -1.02 | N -0.155
W46: S -0.96
V33: Y -0.327 | D -0.086 | M -0.027 | F 0.427 | L 0.174
E16: A -0.017
